Conditions in all cases: both partners purified
Experiment [1] has as its target T1, Ufd2p NLM (S. cerevisiae, UniProt P54860 1-961, E51A | K52A | L53A | D54A | K55A | E105A | N106A | M109A | N110A).
T1 construct: Ufd2p, S. cerevisiae, amino acids 1-961, two N-terminal loops mutated to alanine; prey of the GST-Rad23p pull-down and enzyme of the ubiquitination reactions; also called Ufd2 NLM
T1 sequence (looked up): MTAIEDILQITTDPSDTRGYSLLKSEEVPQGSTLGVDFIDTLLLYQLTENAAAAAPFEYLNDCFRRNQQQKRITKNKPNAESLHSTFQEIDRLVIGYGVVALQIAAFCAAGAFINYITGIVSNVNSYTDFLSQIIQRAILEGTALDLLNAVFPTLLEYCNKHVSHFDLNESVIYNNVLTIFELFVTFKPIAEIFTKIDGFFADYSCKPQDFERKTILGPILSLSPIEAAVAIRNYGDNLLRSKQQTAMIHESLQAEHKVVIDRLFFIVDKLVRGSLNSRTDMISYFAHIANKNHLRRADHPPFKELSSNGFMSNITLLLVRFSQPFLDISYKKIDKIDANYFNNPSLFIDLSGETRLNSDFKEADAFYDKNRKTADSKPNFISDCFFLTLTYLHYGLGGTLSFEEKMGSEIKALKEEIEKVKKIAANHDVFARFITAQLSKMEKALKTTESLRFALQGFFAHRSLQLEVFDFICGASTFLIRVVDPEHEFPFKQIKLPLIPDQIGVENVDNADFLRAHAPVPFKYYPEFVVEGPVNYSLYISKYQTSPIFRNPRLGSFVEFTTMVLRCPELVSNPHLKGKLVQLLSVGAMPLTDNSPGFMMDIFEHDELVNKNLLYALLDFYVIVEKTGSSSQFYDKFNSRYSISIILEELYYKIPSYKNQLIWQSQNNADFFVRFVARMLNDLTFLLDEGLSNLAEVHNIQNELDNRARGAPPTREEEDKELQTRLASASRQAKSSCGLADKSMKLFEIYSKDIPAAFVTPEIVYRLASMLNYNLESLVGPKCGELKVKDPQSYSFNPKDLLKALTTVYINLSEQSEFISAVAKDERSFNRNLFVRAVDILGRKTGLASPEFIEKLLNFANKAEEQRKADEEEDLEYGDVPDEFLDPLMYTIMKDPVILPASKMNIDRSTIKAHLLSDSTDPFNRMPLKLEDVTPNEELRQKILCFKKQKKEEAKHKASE
As to the kind of experiment: pull-down; GST-Rad23p used to pull down Ufd2p, Ufd2p N mut-1 or Ufd2p NLM; blot with anti-Ufd2; GST as control.

The target in experiment [2] is T2, Ufd2p (S. cerevisiae, UniProt P54860 1-961).
T2 construct: Ufd2p, S. cerevisiae, amino acids 1-961; also called wild-type Ufd2p; source: E. coli Rosetta (DE3), purified
T2 sequence (looked up): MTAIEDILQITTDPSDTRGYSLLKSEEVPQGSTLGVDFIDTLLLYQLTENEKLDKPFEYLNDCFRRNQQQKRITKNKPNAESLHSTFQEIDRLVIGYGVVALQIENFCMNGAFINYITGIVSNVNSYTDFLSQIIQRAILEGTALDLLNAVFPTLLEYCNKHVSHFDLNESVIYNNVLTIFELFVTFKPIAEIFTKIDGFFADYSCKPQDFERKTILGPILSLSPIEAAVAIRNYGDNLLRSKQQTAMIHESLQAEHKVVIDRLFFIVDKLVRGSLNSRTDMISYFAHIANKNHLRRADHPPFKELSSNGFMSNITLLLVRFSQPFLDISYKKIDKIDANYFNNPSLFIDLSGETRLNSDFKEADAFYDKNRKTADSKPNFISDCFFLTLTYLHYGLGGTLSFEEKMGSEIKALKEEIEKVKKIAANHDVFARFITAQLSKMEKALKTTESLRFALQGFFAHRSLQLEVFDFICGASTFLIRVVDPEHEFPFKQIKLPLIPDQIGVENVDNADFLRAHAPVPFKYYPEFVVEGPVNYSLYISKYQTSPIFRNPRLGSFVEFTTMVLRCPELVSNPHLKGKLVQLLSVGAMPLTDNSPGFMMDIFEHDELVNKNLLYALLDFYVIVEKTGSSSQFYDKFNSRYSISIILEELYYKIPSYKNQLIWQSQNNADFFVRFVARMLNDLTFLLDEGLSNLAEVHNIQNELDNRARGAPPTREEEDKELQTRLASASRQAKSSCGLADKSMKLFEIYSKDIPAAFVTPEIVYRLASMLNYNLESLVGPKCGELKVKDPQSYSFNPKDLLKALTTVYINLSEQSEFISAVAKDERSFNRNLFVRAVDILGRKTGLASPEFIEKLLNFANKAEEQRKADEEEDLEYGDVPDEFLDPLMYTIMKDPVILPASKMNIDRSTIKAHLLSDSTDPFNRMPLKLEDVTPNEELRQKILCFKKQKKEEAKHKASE
The description is as above.

In experiment [3] the target is T3, Ufd2p NLM (GST pull-down with Rad23p, Supplementary Fig. 14) (S. cerevisiae, UniProt P54860 1-961, E51A | K52A | L53A | D54A | K55A | E105A | N106A | M109A | N110A).
T3 construct: Ufd2p, S. cerevisiae; 1-961 with residues of the two N-terminal loops mutated to alanine; May be the same as m12 if Ufd2p NLM was the GST-tagged bait
T3 sequence (looked up): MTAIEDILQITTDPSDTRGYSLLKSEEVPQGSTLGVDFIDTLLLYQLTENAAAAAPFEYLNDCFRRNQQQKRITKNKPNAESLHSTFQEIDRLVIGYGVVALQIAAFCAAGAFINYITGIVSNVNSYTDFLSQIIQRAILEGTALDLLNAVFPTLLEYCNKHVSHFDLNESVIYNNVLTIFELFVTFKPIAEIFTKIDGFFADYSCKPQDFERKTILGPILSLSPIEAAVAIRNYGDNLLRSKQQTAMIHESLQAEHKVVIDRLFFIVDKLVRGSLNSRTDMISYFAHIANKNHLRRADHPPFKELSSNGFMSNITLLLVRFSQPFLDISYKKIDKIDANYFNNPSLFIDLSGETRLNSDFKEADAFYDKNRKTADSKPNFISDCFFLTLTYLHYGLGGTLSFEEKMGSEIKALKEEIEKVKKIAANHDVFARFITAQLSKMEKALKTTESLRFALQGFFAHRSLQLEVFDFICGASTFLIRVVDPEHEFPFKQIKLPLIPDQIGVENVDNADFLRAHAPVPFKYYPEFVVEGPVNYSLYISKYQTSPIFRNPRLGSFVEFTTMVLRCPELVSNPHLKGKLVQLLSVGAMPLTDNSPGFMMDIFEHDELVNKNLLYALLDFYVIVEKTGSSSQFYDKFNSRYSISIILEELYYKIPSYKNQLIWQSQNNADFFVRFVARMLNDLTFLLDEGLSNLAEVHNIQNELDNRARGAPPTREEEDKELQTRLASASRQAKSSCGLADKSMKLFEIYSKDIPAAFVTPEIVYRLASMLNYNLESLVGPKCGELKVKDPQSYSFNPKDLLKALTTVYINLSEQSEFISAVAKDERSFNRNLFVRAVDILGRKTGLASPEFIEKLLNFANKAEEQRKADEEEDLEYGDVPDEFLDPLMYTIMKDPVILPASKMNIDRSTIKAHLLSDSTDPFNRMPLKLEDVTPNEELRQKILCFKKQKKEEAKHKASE
The experiment is described as follows: pull-down; GST pull-down of Ufd2p or Ufd2p NLM with Rad23p (Supplementary Fig. 14); which partner carried GST is not told.

Experiment [4] concerns the target T4, wild-type Ufd2p (GST pull-down with Rad23p, Supplementary Fig. 14) (S. cerevisiae, UniProt P54860 1-961).
T4 construct: Ufd2p, S. cerevisiae; amino acids 1-961; May be the same as m2 if Ufd2p was the GST-tagged bait
T4 sequence (looked up): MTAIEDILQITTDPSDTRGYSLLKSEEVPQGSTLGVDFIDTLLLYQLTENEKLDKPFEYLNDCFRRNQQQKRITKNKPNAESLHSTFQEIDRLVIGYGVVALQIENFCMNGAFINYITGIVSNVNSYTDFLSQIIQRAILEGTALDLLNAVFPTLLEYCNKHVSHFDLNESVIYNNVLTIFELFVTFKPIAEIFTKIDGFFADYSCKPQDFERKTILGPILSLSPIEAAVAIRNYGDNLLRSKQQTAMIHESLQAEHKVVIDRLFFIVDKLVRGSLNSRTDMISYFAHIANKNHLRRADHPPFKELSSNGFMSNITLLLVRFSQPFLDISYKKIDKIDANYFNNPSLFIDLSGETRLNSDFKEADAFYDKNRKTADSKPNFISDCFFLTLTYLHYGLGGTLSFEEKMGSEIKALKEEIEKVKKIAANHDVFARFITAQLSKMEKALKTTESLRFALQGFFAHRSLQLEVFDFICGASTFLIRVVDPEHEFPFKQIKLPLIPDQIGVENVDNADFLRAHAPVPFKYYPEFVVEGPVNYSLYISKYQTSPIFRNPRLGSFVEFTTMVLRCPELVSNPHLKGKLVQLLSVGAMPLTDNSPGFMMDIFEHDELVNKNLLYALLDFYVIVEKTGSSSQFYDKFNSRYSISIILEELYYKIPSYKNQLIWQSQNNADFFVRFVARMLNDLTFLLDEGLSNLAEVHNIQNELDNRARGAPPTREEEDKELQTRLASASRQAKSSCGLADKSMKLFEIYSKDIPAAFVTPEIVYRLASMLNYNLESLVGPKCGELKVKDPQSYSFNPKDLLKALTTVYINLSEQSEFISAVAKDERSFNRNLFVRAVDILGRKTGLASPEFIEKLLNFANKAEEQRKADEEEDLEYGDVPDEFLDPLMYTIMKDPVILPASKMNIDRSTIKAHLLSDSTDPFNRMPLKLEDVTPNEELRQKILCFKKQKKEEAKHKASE
The description is as above.

These results are taken from publication PMC5303827 (Nature Communications, 2017).

B1: GST-Rad23p (natural protein, S. cerevisiae, UniProt P32628 1-398, looked up)
chain: MVSLTFKNFKKEKVPLDLEPSNTILETKTKLAQSISCEESQIKLIYSGKVLQDSKTVSECGLKDGDQVVFMVSQKKSTKTKVTEPPIAPESATTPGRENSTEASPSTDASAAPAATAPEGSQPQEEQTATTERTESASTPGFVVGTERNETIERIMEMGYQREEVERALRAAFNNPDRAVEYLLMGIPENLRQPEPQQQTAAAAEQPSTAATTAEQPAEDDLFAQAAQGGNASSGALGTTGGATDAAQGGPPGSIGLTVEDLLSLRQVVSGNPEALAPLLENISARYPQLREHIMANPEVFVSMLLEAVGDNMQDVMEGADDMVEGEDIEVTGEAAAAGLGQGEGEGSFQVDYTPEDDQAISRLCELGFERDLVIQVYFACDKNEEAAANILFSDHAD
notes: Rad23p, ubiquitin receptor for the proteasome, yeast; source: E. coli Rosetta (DE3), purified (Glutathione Sepharose 4B, size exclusion chromatography); not shown: GST, N-terminal, kept
For B1, the binding result in experiment [1] and in experiment [2] was “binds” each time.

B2: Rad23p (GST pull-down with Ufd2p, Supplementary Fig. 14) (natural protein, UniProt P32628 1-398, looked up)
chain: MVSLTFKNFKKEKVPLDLEPSNTILETKTKLAQSISCEESQIKLIYSGKVLQDSKTVSECGLKDGDQVVFMVSQKKSTKTKVTEPPIAPESATTPGRENSTEASPSTDASAAPAATAPEGSQPQEEQTATTERTESASTPGFVVGTERNETIERIMEMGYQREEVERALRAAFNNPDRAVEYLLMGIPENLRQPEPQQQTAAAAEQPSTAATTAEQPAEDDLFAQAAQGGNASSGALGTTGGATDAAQGGPPGSIGLTVEDLLSLRQVVSGNPEALAPLLENISARYPQLREHIMANPEVFVSMLLEAVGDNMQDVMEGADDMVEGEDIEVTGEAAAAGLGQGEGEGSFQVDYTPEDDQAISRLCELGFERDLVIQVYFACDKNEEAAANILFSDHAD
notes: Rad23p; May be the same as m19 if Rad23p was the GST-tagged bait
B2: the binding result in experiment [3] and in experiment [4] was “binds” each time.
